In patent US20200199241A1 (Chugai, published 2020):

T1: human FcγRIIb (human, UniProt P31994 43-217, limits assumed)
T1 construct: also called FcgRIIb
T1 sequence: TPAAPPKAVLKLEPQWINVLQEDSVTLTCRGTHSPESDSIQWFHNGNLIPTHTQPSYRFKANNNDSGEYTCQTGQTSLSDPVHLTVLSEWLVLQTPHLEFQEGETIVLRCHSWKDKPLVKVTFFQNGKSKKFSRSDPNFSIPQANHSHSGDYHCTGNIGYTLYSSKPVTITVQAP

T2: human FcγRIIa(H) (human, UniProt P12318 36-217)
T2 construct: also called FcgRIIaH; FcγRIIa type H
T2 sequence: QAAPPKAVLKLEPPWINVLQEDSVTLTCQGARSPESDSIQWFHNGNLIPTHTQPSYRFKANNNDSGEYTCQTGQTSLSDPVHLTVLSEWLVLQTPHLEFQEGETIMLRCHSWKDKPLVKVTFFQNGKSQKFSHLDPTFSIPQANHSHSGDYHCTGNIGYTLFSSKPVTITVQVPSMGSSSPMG

T3: human FcγRIIa(R) (human, UniProt P12318 36-217)
T3 construct: also called FcgRIIaR; FcγRIIa type R
T3 chain: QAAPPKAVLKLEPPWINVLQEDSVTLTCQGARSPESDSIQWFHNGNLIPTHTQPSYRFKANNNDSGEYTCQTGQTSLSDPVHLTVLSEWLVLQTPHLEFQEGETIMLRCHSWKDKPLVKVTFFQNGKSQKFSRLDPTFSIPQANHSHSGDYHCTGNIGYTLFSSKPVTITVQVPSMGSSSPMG


Tests used:
Assay in all cases: SPR (Biacore);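 note: antibody variants captured on sensor chip, Fcγ receptor flowed over at 25 °C, bound receptor normalized to amount of captured antibody, expressed relative to reference antibody set as 100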
[1] = target: T4, human FcγRIIIa(F) (human, UniProt P08637 17-208, limits assumed)
T4 construct: also called FcgRIIIaF; allotype F158

[2] = target: T5, human FcγRIa (human, UniProt P12314 16-292, limits assumed)
T5 construct: also called FcgRIa; FcγRI (CD64)

[3] = target: T1, human FcγRIIb
[4] = target: T2, human FcγRIIa(H)
[5] = target: T3, human FcγRIIa(R)

T5 sequence (P12314 16-292 limits assumed): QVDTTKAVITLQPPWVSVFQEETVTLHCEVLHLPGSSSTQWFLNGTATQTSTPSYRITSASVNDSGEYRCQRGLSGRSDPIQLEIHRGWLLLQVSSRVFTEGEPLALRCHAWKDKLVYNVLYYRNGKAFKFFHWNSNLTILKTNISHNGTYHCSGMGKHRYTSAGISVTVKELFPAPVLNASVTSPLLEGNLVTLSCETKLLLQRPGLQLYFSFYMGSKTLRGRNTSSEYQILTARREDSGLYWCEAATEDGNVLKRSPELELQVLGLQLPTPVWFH
T4 sequence (P08637 other isoform, or with tags, fused parts or gaps limits assumed): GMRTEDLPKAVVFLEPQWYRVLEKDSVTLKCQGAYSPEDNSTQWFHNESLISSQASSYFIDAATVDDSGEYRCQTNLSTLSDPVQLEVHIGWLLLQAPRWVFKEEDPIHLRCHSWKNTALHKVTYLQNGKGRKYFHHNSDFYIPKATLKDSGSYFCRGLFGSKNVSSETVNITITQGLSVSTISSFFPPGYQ

| Binder | relative binding activity [1] | relative binding activity [2] | relative binding activity [3] | relative binding activity [4] | relative binding activity [5] |
| --- | --- | --- | --- | --- | --- |
| GpH7-B3 variant G236R/GpL16-k0 (antibody, human IgG1, copies: 2 + 2) heavy: not shown light: DIVMTQSPLSLPVTPGEPASISCQASESLVHSNRNTYLHWYLQKPGQSPQLLIYKVSNRFSGVPDRFSGSGSGTDFTLKISRVEAEDVGVYYCSQNTHVPPTFGQGTKVEIE | -1 % of GpH7-B3/GpL16-k0 | 6 % of GpH7-B3/GpL16-k0 | 0 % of GpH7-B3/GpL16-k0 | 3 % of GpH7-B3/GpL16-k0 | 0 % of GpH7-B3/GpL16-k0 |
| GpH7-B3 variant G236Y/GpL16-k0 (antibody, human IgG1, copies: 2 + 2) heavy: not shown light: DIVMTQSPLSLPVTPGEPASISCQASESLVHSNRNTYLHWYLQKPGQSPQLLIYKVSNRFSGVPDRFSGSGSGTDFTLKISRVEAEDVGVYYCSQNTHVPPTFGQGTKVEIE | 39 % of GpH7-B3/GpL16-k0 | 76 % of GpH7-B3/GpL16-k0 | 16 % of GpH7-B3/GpL16-k0 | 86 % of GpH7-B3/GpL16-k0 | 22 % of GpH7-B3/GpL16-k0 |
| GpH7-B3 variant G237D/GpL16-k0 (antibody, human IgG1, copies: 2 + 2) heavy: not shown light: DIVMTQSPLSLPVTPGEPASISCQASESLVHSNRNTYLHWYLQKPGQSPQLLIYKVSNRFSGVPDRFSGSGSGTDFTLKISRVEAEDVGVYYCSQNTHVPPTFGQGTKVEIE | 0 % of GpH7-B3/GpL16-k0 | 26 % of GpH7-B3/GpL16-k0 | 95 % of GpH7-B3/GpL16-k0 | 0 % of GpH7-B3/GpL16-k0 | 74 % of GpH7-B3/GpL16-k0 |
| GpH7-B3 variant G237H/GpL16-k0 (antibody, human IgG1, copies: 2 + 2) heavy: not shown light: DIVMTQSPLSLPVTPGEPASISCQASESLVHSNRNTYLHWYLQKPGQSPQLLIYKVSNRFSGVPDRFSGSGSGTDFTLKISRVEAEDVGVYYCSQNTHVPPTFGQGTKVEIE | 0 % of GpH7-B3/GpL16-k0 | 12 % of GpH7-B3/GpL16-k0 | 11 % of GpH7-B3/GpL16-k0 | 1 % of GpH7-B3/GpL16-k0 | 14 % of GpH7-B3/GpL16-k0 |
| GpH7-B3 variant G236H/GpL16-k0 (antibody, human IgG1, copies: 2 + 2) heavy: not shown light: DIVMTQSPLSLPVTPGEPASISCQASESLVHSNRNTYLHWYLQKPGQSPQLLIYKVSNRFSGVPDRFSGSGSGTDFTLKISRVEAEDVGVYYCSQNTHVPPTFGQGTKVEIE | 7 % of GpH7-B3/GpL16-k0 | 34 % of GpH7-B3/GpL16-k0 | 6 % of GpH7-B3/GpL16-k0 | 91 % of GpH7-B3/GpL16-k0 | 32 % of GpH7-B3/GpL16-k0 |
| GpH7-B3 variant G236Q/GpL16-k0 (antibody, human IgG1, copies: 2 + 2) heavy: not shown light: DIVMTQSPLSLPVTPGEPASISCQASESLVHSNRNTYLHWYLQKPGQSPQLLIYKVSNRFSGVPDRFSGSGSGTDFTLKISRVEAEDVGVYYCSQNTHVPPTFGQGTKVEIE | 8 % of GpH7-B3/GpL16-k0 | 45 % of GpH7-B3/GpL16-k0 | 19 % of GpH7-B3/GpL16-k0 | 80 % of GpH7-B3/GpL16-k0 | 38 % of GpH7-B3/GpL16-k0 |
| GpH7-B3 variant E269Y/GpL16-k0 (antibody, human IgG1, copies: 2 + 2) heavy: not shown light: DIVMTQSPLSLPVTPGEPASISCQASESLVHSNRNTYLHWYLQKPGQSPQLLIYKVSNRFSGVPDRFSGSGSGTDFTLKISRVEAEDVGVYYCSQNTHVPPTFGQGTKVEIE | 14 % of GpH7-B3/GpL16-k0 | 97 % of GpH7-B3/GpL16-k0 | 13 % of GpH7-B3/GpL16-k0 | 43 % of GpH7-B3/GpL16-k0 | 21 % of GpH7-B3/GpL16-k0 |
| GpH7-B3 variant G237I/GpL16-k0 (antibody, human IgG1, copies: 2 + 2) heavy: not shown light: DIVMTQSPLSLPVTPGEPASISCQASESLVHSNRNTYLHWYLQKPGQSPQLLIYKVSNRFSGVPDRFSGSGSGTDFTLKISRVEAEDVGVYYCSQNTHVPPTFGQGTKVEIE | 2 % of GpH7-B3/GpL16-k0 | 6 % of GpH7-B3/GpL16-k0 | 29 % of GpH7-B3/GpL16-k0 | 6 % of GpH7-B3/GpL16-k0 | 69 % of GpH7-B3/GpL16-k0 |
| GpH7-B3 variant G236F/GpL16-k0 (antibody, human IgG1, copies: 2 + 2) heavy: not shown light: DIVMTQSPLSLPVTPGEPASISCQASESLVHSNRNTYLHWYLQKPGQSPQLLIYKVSNRFSGVPDRFSGSGSGTDFTLKISRVEAEDVGVYYCSQNTHVPPTFGQGTKVEIE | 24 % of GpH7-B3/GpL16-k0 | 81 % of GpH7-B3/GpL16-k0 | 15 % of GpH7-B3/GpL16-k0 | 68 % of GpH7-B3/GpL16-k0 | 23 % of GpH7-B3/GpL16-k0 |
| GpH7-B3 variant G236P/GpL16-k0 (antibody, human IgG1, copies: 2 + 2) heavy: not shown light: DIVMTQSPLSLPVTPGEPASISCQASESLVHSNRNTYLHWYLQKPGQSPQLLIYKVSNRFSGVPDRFSGSGSGTDFTLKISRVEAEDVGVYYCSQNTHVPPTFGQGTKVEIE | 1 % of GpH7-B3/GpL16-k0 | 2 % of GpH7-B3/GpL16-k0 | 1 % of GpH7-B3/GpL16-k0 | 22 % of GpH7-B3/GpL16-k0 | 12 % of GpH7-B3/GpL16-k0 |
| GpH7-B3 variant E269P/GpL16-k0 (antibody, human IgG1, copies: 2 + 2) heavy: not shown light: DIVMTQSPLSLPVTPGEPASISCQASESLVHSNRNTYLHWYLQKPGQSPQLLIYKVSNRFSGVPDRFSGSGSGTDFTLKISRVEAEDVGVYYCSQNTHVPPTFGQGTKVEIE | 14 % of GpH7-B3/GpL16-k0 | 93 % of GpH7-B3/GpL16-k0 | 26 % of GpH7-B3/GpL16-k0 | 33 % of GpH7-B3/GpL16-k0 | 34 % of GpH7-B3/GpL16-k0 |
